Experimental data as given in patent US12692524B2, “Sialyltransferases and their use in producing sialylated oligosaccharides” (Chr. Hansen A/S, priority 2017, dated 2026).

B1: SiaT6: sialyltransferase of Photobacterium sp. JT-ISH-224, acc. BAF92026, SEQ ID NO: 29 (protein, listed as Photobacterium sp.)
chain: MSEENTQSIIKNDINKTIIDEEYVNLEPINQSNISFTKHSWVQTCGTQQLLTEQNKESISLSVVAPRLDDDEKYCFDFNGVSNKGEKYITKVTLNVVAPSLEVYVDHASLPTLQQLMDIIKSEEENPTAQRYIAWGRIVPTDEQMKELNITSFALINNHTPADLVQEIVKQAQTKHRLNVKLSSNTAHSFDNLVPILKELNSFNNVTVTNIDLYDDGSAEYVNLYNWRDTLNKTDNLKIGKDYLEDVINGINEDTSNTGTSSVYNWQKLYPANYHFLRKDYLTLEPSLHELRDYIGDSLKQMQWDGFKKFNSKQQELFLSIVNFDKQKLQNEYNSSNLPNFVFTGTTVWAGNHEREYYAKQQINVINNAINESSPHYLGNSYDLFFKGHPGGGIINTLIMQNYPSMVDIPSKISFEVLMMTDMLPDAVAGIASSLYFTIPAEKIKFIVFTSTETITDRETALRSPLVQVMIKLGIVKEENVLFWADLPNCETGVCIAV
B2: SiaT8: sialyltransferase of Photobacterium sp. JT-ISH-224, acc. BAF92025, SEQ ID NO: 3 (protein, listed as Photobacterium sp.)
chain: MGCNSDSNHNNSDGNITKNKTIEVYVDRATLPTIQQMTQIINENSNNKKLISWSRYPINDEELLESINGSFFKNNSELIKSLDSMILTNDIKKVIINGNTLWAADVVNIIKSIEAFGKKTEIELNFYDDGSAEYVRLYDFSKLPESEQEYKISLSKDNILSSINGTQPFENVVENIYGFSQLYPTTYHMLRADIFETNLPLRSLKGVLSNNIKQMKWDYFKTFNSQQKDKFYNFTGFNPDEIMEQYKASPNKNFIFVGTNSGTATAEQQIDILTEAKNPNSPIITKSIQGFDLFFKGHPSATYNKQIIDAHNMIEIYNKIPFEALIMTDALPDAVGGMGSSVFFSLPNTVENKFIFYKSDTDIENNALIQVMIELNIVNRNDVKLISDLQ
B3: SiaT18: sialyltransferase of Photobacterium leiognathi JT-SHIZ-119, acc. AB500947, SEQ ID NO: 28 (protein, listed as Photobacterium leiognathi)
chain: MCNDNQNTVDVVVSTVNDNVIENNTYQVKPIDTPTTFDSYSWIQTCGTPILKDDEKYSLSFDFVAPELDQDEKFCFEFTGDVDGKRYVTQTNLTVVAPTLEVYVDHASLPSLQQLMKIIQQKNEYSQNERFISWGRIGLTEDNAEKLNAHIYPLAGNNTSQELVDAVIDYADSKNRLNLELNTNTAHSFPNLAPILRIISSKSNILISNINLYDDGSAEYVNLYNWKDTEDKSVKLSDSFLVLKDYFNGISSEKPSGIYGRYNWHQLYNTSYYFLRKDYLTVEPQLHDLREYLGGSLKQMSWDGFSQLSKGDKELFLNIVGFDQEKLQQEYQQSELPNFVFTGTTTWAGGETKEYYAQQQVNVVNNAINETSPYYLGREHDLFFKGHPRGGIINDIILGSFNNMIDIPAKVSFEVLMMTGMLPDTVGGIASSLYFSIPAEKVSFIVFTSSDTITDREDALKSPLVQVMMTLGIVKEKDVLFWSDLPDCSSGVCIAQY
B4: SiaT20: sialyltransferase of Campylobacter coli, acc. YP_008473374, SEQ ID NO: 1 (protein, listed as Campylobacter coli)
chain: MQNVIIAGNGPSLQSINYQRLPKEYDIFRCNQFYFEDKYYLGKNIKAAFFNPYPFLQQYHTAKQLVFNNEYKIENIFCSTFNLPFIEKDNFINKFYDFFPDAKLGHKIIENLKEFYAYIKYNEIYLNKRITSGIYMCAIAIALGYKNIYLCGIDFYEGETIYPFKAMSKNIKKIFPWIKDFNPSNFHSKEYDIEILKLLESIYKVNIYALCDNSALANYFPLLVNTDNSFVLENKSDDCINDILLTNNTPGINFYKSQIQVNNTEILLLNFQNMISAKENEISNLNKILQDSYKTINTKENEISNLNKILQDSYKTINTKENEISNLNKILQDKDKLLIVKENLLNFKSRHGKAKFRIQNQLSYKLGQAMMVNSKSLLGYIRMPFVLSYIKDKHKQEQKIYQEKIKKDPSLTLPPLEDYPDYKEALKEKECLTYRLGQTLIKADQEWYKGGYVKMWFEIKKLKKEYKKK

Columns and labels:
[1] = In vitro kinetics (Km, Vmax), acceptor substrate lactose; format: biochemical; conditions: 30° C., pH7.5, protein extract
Method: (§1) To rank the best performing sialyltransferases, their Km values for donor and acceptor substrates were determined in vitro. Escherichia coli BL21(DE3) strain #287 was used for overproduction of the enzymes. Cells were incubated in 100 ml 2YT medium in shaking flasks supplemented with 100 μg m^−1 ampicillin at 30° C. until an OD600 of 0.3 was reached. Then, 0.3 mM IPTG was added and the incubation was continued for 12 to 16 hours. Cells were harvested by centrifugation and mechanically disrupted in a defined volume of 50 mM Tris-HCl pH7.5 using glass beads. The protein extract was kept on ice until the assay started. The in vitro assay was carried out in a total volume of 50 μl including 50 mM Tris-HCl pH7.5, 5 mM MgCl2 and varying concentrations of CMP-Neu5Ac (0.05-30 mM) as well as of lactose or LNT (0.1-50 mM). The assay started with the addition of 35 to 750 μg protein extract. After 1 to 10 minutes of incubation at 30° C., the assay was inactivated at 95° C. for 5 minutes. Product formation was determined by mass spectrometry. Data were evaluated using the enzyme kinetic module of SigmaPlot v12.5 to calculate Km and Vmax.
(§2) Their kinetic parameters for CMP-Neu5Ac and LNT as well as lactose are depicted in Table 6.

[2] = In vitro kinetics (Km, Vmax), donor substrate CMP-Neu5Ac; format: biochemical; conditions: for Km / Vmax CMP-Neu5Ac: 30° C., pH7.5, protein extract
Method: as §1, §2

[3] = In vitro kinetics (Km, Vmax), acceptor substrate LNT; format: biochemical; conditions: 30° C., pH7.5, protein extract
Method: as §1, §2

[4] = In vitro sialylation of LNT by protein extracts, LST-a/-b quantified by LC-MS/MS; format: biochemical; conditions: for Relative efficacy of sialyltransferases regarding in-vitro production of sialyllacto-N-tetraoses: LST-b / Relative efficacy of sialyltransferases regarding in-vitro production of sialyllacto-N-tetraoses: LST-a: 5 mM LNT, 10 mM CMP-Neu5Ac, 16 hours, LC-MS/MS, relative quantity, n.d.: not detectable; for Ranking in the screening for sialylation of LNT: in words
Outline: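 E. coli BL21(DE3) crude extracts overexpressing sialyltransferases (IPTG 0.3 mM, 12–16 h at 30 °C) incubated 16 h with 5 mM LNT and 10 mM CMP-Neu5Ac in 50 mM Tris-HCl pH 7.5, 5 mM MgCl2. LST-a and LST-b measured by HILIC LC-MS/MS, MRM in ESI negative mode, against commercial standards.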

[5] = In vivo screening in E. coli #1363/#1730 with lactose as acceptor, sialyllactose identified by TLC; format: cell-based, Escherichia coli BL21(DE3); conditions: for Production of sialyllactose in-vivo: 1.5 mM lactose, 72 to 96 hours, qualitative via TLC
Outline: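 E. coli BL21(DE3) #1363/#1730 expressing sialyltransferases were grown at 30 °C in mineral salts medium with 2% glucose and induced with 0.3 mM IPTG. After 1 h, 1.5 mM lactose was added, plus 1.5 mM sialic acid for #1730, and incubation ran 72–96 h. Cell lysates were analysed by silica TLC with thymol staining.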

| Molecule | Km [1] [mM] | Vmax Lactose [1] [µmol/min] | Km [2] [mM] | Vmax CMP-Neu5Ac [2] [µmol/min] | Km [3] [mM] | Vmax LNT [3] [µmol/min] | Relative efficacy of sialyltransferases regarding in-vitro production of sialyllacto-N-tetraoses: LST-b [4] | Ranking in the screening for sialylation of LNT [4] | Production of sialyllactose in-vivo [5] | Described activity confirmed in the lactose screening ([5]; in words) | Relative efficacy of sialyltransferases regarding in-vitro production of sialyllacto-N-tetraoses: LST-a [4] | Michaelis-Menten behaviour ([2]; kinetic parameters for CMP-Neu5Ac, LNT and lactose) |
| --- | --- | --- | --- | --- | --- | --- | --- | --- | --- | --- | --- | --- |
| B1 | 5.6 | 0.20 | 2 | 0.16 | 5.5 | 0.13 | 300 | sialylate LNT most efficiently among the tested α-2,6-sialyltransferases | 6′-SL | could be confirmed |  |  |
| B2 | 4.3 | 0.37 | 4 | 0.35 | 4.2 | 0.32 |  | best performing α-2,3-sialyltransferases for LST-a production |  |  | 4.00 × 10^3 |  |
| B3 | 7.6 | 0.21 | 2.8 | 0.21 | 5.2 | 0.14 | 303 | sialylate LNT most efficiently among the tested α-2,6-sialyltransferases | 6′-SL |  |  |  |
| B4 |  |  |  |  |  |  |  | best performing α-2,3-sialyltransferases for LST-a production | 3′-SL |  | 1.00 × 10^4 | does not follow a Michaelis-Menten kinetic |
